In US20160187342, “DNA Aptamer Specifically Binding to EN2 (Engrailed-2) and Use Thereof” (POSTECH ACADEMY-INDUSTRY FOUNDATION, published 2016):

Columns and labels:
EN2 (Engrailed-2) [1] = molecular target: T1, EN2 (Engrailed-2) (UniProt P19622 P19622:1-333); experiment: FAM fluorescence of protein-bound aptamer; settings: tags: (His)6-tag, pET28a, E. coli BL21(DE3), hairpin
T1 sequence: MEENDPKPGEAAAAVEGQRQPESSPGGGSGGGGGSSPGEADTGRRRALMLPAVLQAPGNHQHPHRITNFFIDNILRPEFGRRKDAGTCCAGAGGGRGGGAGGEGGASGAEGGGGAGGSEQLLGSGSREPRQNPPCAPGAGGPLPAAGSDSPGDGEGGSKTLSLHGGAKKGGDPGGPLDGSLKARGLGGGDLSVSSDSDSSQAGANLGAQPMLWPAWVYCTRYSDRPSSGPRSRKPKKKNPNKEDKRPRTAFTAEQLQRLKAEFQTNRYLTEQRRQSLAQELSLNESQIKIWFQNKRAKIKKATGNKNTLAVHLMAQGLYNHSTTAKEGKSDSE
Method: (§1) Then, in order to compare binding strengths between the EN2 protein and each of the DNA aptamers, a dissociation constant (Kd) between the EN2 protein and each of the DNA aptamers was measured. In this case, fluorescein amidite (FAM) was attached to the DNA aptamer as a marker, and an amount of the DNA aptamer bound to the protein was measured according to a fluorescent signal of FAM.

[2] = molecular target: TATA box binding protein (TBP) (UniProt P20226 P20226:1-339); experiment: impedance biosensor on gold, 10 pM protein in artificial urine; settings: label: FAM (Kd assay); poly A linker to gold surface (biosensor); hairpin, loop 8 bases, stem 14 bp
Method: In order to identify selective binding of the DNA aptamer, a binding specificity with respect to several protein samples was identified. Each protein was mixed in an artificial urine medium to have a concentration of 10 pM, and then it was identified whether binding to the DNA aptamer was performed.

EN2 (Engrailed-2) [3] = molecular target: T1, EN2 (Engrailed-2); experiment: FAM fluorescence of protein-bound aptamer; printed as hDNA5; settings: tags: (His)6-tag, pET28a, E. coli BL21(DE3); label: FAM; hairpin, loop 8 bases, stem 10 bp
Method: as §1

EN2 (Engrailed-2) [4] = molecular target: T1, EN2 (Engrailed-2); experiment: FAM fluorescence; second strand printed 3'-5' in Table 1; EMSA, SPR and SYBR Green I displacement also showed binding of TAATTA dsDNA; settings: tags: (His)6-tag, pET28a, E. coli BL21(DE3); label: FAM

TATA box binding protein (TBP), sequence (P20226 whole entry, one chain of several): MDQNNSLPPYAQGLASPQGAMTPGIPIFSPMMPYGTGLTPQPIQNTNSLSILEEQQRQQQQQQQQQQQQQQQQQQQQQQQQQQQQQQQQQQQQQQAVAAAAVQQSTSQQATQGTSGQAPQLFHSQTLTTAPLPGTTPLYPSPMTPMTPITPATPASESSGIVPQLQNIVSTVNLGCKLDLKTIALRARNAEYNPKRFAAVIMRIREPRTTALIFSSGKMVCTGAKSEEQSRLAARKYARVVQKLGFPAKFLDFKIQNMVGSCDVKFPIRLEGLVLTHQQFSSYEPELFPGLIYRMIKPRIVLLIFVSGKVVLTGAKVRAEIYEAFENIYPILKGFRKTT

B1: hpDNA6 (structured_DNA)
DNA: CGCAGTGTAATTACCTCGACCAGAAGGAGTCGAGGTAATTACACTGCG
- Kd (EN2 (Engrailed-2) [1]; label: FAM, loop 8 bases, stem 20 bp): 61 nM

B2: hpDNA3 (structured_DNA)
DNA: CGTGTAATTACCTCCAGAAGGAGAGGTAATTACACG
- Kd (EN2 (Engrailed-2) [1]; label: FAM (Kd assay), poly A linker to gold surface (biosensor), loop 8 bases, stem 14 bp): 66.3 nM
- binding result [2]: no binding

B3: hpDNA5 (structured_DNA)
DNA: CGTAATTACCCAGAAGGAGGTAATTACG
- Kd (EN2 (Engrailed-2) [3]): 68.8 nM

B4: hpDNA1 (structured_DNA)
DNA: CGTGTAATTACCTCCAGAGAGGTAATTACACG
- Kd (EN2 (Engrailed-2) [1]; label: FAM, loop 4 bases, stem 14 bp): 85.7 nM

B5: hpDNA4 (structured_DNA)
DNA: CGTGTAATTACCTCCAGACCAGGAGAGGTAATTACACG
- Kd (EN2 (Engrailed-2) [1]; label: FAM, loop 10 bases, stem 14 bp): 88.8 nM

B6: dsDNA probe (dsDNA)
DNA 1: CGTGTAATTACCTC
DNA 2: GAGGTAATTACACG
- Kd (EN2 (Engrailed-2) [4]): 95.2 nM

B7: hpDNA2 (structured_DNA)
DNA: CGTGTAATTACCTCCAGGGAGAGGTAATTACACG
- Kd (EN2 (Engrailed-2) [1]; label: FAM, loop 6 bases, stem 14 bp): 98.8 nM
